Experiment: label from the status in PepcDB records
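Further: failed if final PepcDB status was selected cloned or expressed and not failed if soluble or beyond.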

| Sequence | protein production |
| --- | --- |
| MGMKYWSSKRRLYLTPVSFGFACSALLMLGTLSSYPDWLTCNPAPVVNQNDAVIYYFFRNIMMAVLFMSSIILYYFRQRIMHSWKAHVLTFTACILFTLTIIVLSWLYSSHSPWLSVNFIDDLSHTFTPLWQSIIGWLLMAVWFITLILLISLSKLRNIFWFSGAFFCSAYLFTLFQLLSTAGELDQTWYQARFFETLCTLFLILVLLVDVFILYRESNHKYVHSYQNSIRDPLTRLYNRSFFYDTLNQQLAKVNAQHPLSVLISDLDHFKRINDSYGHVAGDKVIQFAASVLESHSRVDDAAARIGGEEFALLLVNTGEKEAQAIAERIRLAVSAGESHLPERMTISMGVYTTYDNSVTAEACVQRADEAMYEAKNNGRNQVIVWHQQGG | failed |
| MRGLRSESKVLELVVIPADHSIAELLKMKENEPVNKLVRVRYAEGEPLQYHTSYIPWKAAPGLAQEECTGSLFELLRTKYNIEISRGTESIEPILTDETISGHLLTNVGAPAFLSESLTYDKNEEVVEYAQIITRGDRTKFTVEQSYHS | failed |
| MGMDLRVVPAEEWLNRGIDSSHDGEHDLGLMVTDFLETGGGSGGAGSWCSSDSDSGFPDPSYLSDKIQYLKYSMAQHETEVLSVVRTLMLTIKEKDLHSVKSGTCNASCIRFYLAKLLRLSGYDAAVCSARWQGGGKVPGGDNEYIDIILSDTEVGQDDRLIVDIDFRSHFEIARAVDSYQRIMESLPVVYVGTVARLNQFLQVMVDAAKFSLKQNSMPLPPWRSLNYLRSKWHSPHKRHLGPIDQQGPGMFSPGLHGQCAENLKRLQFALQVEQEAERFMKKKSGFSRRN | failed |
| AIADSKSHGWLIGANGTILETHDGGEHWEPRTFDFLRMDEEINYRFESISCYGNEGWIVGKPPILLHTQNGGKDWERIPLSSKLPGEPVLITALGPNRAELATTAGAIYTTDNGGKNWKALVKETIDATLNRTTSSGVTGASYYTGTVISITRDCNGYYLAISSRGNFYVTWHPGQEYWTPHPRDSSRRIQSMGFVQNDIHKGLWMANNGGFLGFSPPNPSLDTVSSIPFQRVDIRTGGYGILDVAFHQQKRNEVWASVGSGILYRSFDGGKHWEKDPWLDHLGSVLYRIKFVENSGFILGAKGTLLRYNG | not failed |
| MLEGESAPEPVIEISKLELTDYVKCNLPPEVIKYYESELELLTQEIKSEKKNPAFAYCRRGAIYRKLGKLQSAMNDLQETIFVEPLFLNAYWHRHFIYLFQDKINDALDDLNFITKYNKNHAEAYLSKAEIFREKNDITLAILNYSQAIKCRPKDASLYFKRGEMYEKTNKVLAIDDFSKGLDQAVTHVTESAQIFPPLLGQNDCIYYDPKRSDALWKRGMFYFENENWTGAVYDFTSLLKLEPHNSQARTNRGRAYFKRNLFKQATEDFSAAIHSDPNNWLALYYRACLFRKCSPQRALQDYSVSVSVSVLCSPGFKLFIYKVNGMSEFTTSFHEFVNCDCHVLINDGYDNLNCFLHRGILYTELKFWMLAVCDFETVVTLERIKAIISSRGQYLLMMKSYDLAKLTIFQVAEMNKGVIELSPIQEALIYSFCENHDKAIHVLEGVIANKPDISTYALLAKAQMKAKRIKESVRLFKKALELYTFSDKGPAATSVSADCLYNLGLCYMEEGNFQMNYKLAITDLTTAVGMDKNSYTAFYNRALCYTKIKKHEMALRDYGIVLLLQAGETIALNTLVNRGLIYTELEQYGFALEDFKEASMISETSVKLCQATAMCHHRIKEFQGAVEFFTRAIKINPRYLDAYIGRGNSYMEYEQNKAMIQAQKDFLRALHLDPSNLKARISLGYNLQAQGKFQKAWQHFTIGIEANPKNYLAYEGRAVVCLQMSNYFAAMQDINCAIKINSTAEFLTNRGVIHEFMGQQQNAMADYQAAISLDPNYSLAYFNAGNIYLHHRQFSQATDYFSTALKLNPENECALMNRAVTNSVLKKYEEAEKDFSHAMELCPHWAALYFNRASFYVYLKKYELAEEDLDRALSLKPDDAIMYNLRAQVRGKIGLIEEAMCDYNQALDLEEYSKAM | failed |
| MVEGTESATGAASAGDLVEGRHAAPKARAGKGGLARSSLLMALGTVVSRATGLIRQVLQAAALGTGLLASTYNTANTVPTSLYTLLIGGALNAVLVPQLVRARATQPDGGRAYEQRLVTLVLCVLGVGTALAVWAAPGIVALYMRDTPDSHEAFELTVVFARFLLPQIFFYGVFSILGQVLNAREKFGAMMWTPVLNNVVLIGMFGAYLSLMTVPDRVEDITGQQVRFLGVCTTAGIALQALALIPFVRAAGFRFRPRFDWRGTGLGKSVHAAKWTLLLVLANQVALTVVTNYANAVDQELPKAGAGYTAYTYAQTIWMLPQSIVTVSLVTALLPRMSRAVAEDRLPDLRADLSRVLRISGVVIVPAGFLFLALGPGIATLLFAHGAADAASAQPLGHMLQAFGLGLIPFSAQYLLLRGFYAFEDTRTPFFMAVWIAVVNIALATACHLLLPARWAVTGMAAGYTLSYLAGLLLTARLLRKRLGGRRLDDGELRRTYGKLLCASAVAAGAGWAAARATATTTPTALALAAGAVTMALVYVALARLLKVSELRLPGRG | failed |
| MSLSLKIALISQNENLLNLFPKLALEKNFIPITKTASLTRASKIAFGLQDEVDAIISRGATSDYIKKSVSIPSISIKVTRFDTMRAVYNAKRFGNELALIAYKHSIVDKHEIEAMLGVKIKEFLFSSEDEITTLISKVKTENIKIVVSGKTVTDEAIKQGLYGETINSGEESLRRAIEEALNLIEVRNEGHHHHHH | not failed |
| MNNTLLYVITVLIWGSTWIAINYQLGEVAAEVSIVYRFGLAALCMFAYCRFKKLPLKFSAKQHLQLSAFGLTLFGFNYYLLYNAQAHINSALTSIAFSTLMMINILNARVWFKTRISSRVYYGGALGLMGIVTLFWPQISNVHFGDSTLLGLGLCLIGVVFASTGNMISIKNQHDNMPVLPATAWGMMYGSLFMFVVALVQGQTFNFSYTFEYISSLLYLSIFGSVIAFGCYLTLLARIGAHKASYATIMFPAVAVVISSFFEGFIWDSYTFIGLSLMLAGNLVVLAKPGMLKRFNSTSLKQVSCSDAK | failed |
| SKDVLADYKELFRQFSISDIAVWVSTPSFAGVCITEKEFNSKMLPNLESMIFIGEALSKNLTKELMSRFPNTRIINGYGPTEATVGVSVNDMTQKAIDDEK | failed |
| MTATLQVTIVVGYLLVALAIGLLAYRVTERAAEDFYLASRTFGTAVLLFTVFATLLSAFTFFGGPDNAYAFGPEWILVMGLMDGLIFAILWYLIGYKQWLLGQRHGYVTLGEMFGDRFGSTGVRALVAVVSLFWLFPYVMLQQIGAGGALAALTDGVVPFWAGASLITGFMILYVVLAGMRGIAWTDTLQGAFMLCMVWAALVWVLVAVDGGVSTINAGLTESSPEFFALGSDFYTPGTMLTFAISIAFGVAMFPQVNQRFFTAASETVLKRSFALWPLLVLLLFVPAFLLGTWAQGLGLQADVGAGESILPILLDTYTPAWFAALVIAGAIAAMMSSSDSMLLSGSSYFTRDVYRPLVDDGITERQEDRLGRIGVAVFAIAALAASVWAEAEAFGAVAVGSVLVEIGDLAFGGFAQLTVPVLVALYWRGTTKQGLVAGILLPQAVYLAFNFLPATEVGSAMLFSETYLGWGISIYCLLLGLVATVVVSAATTKADSERPALFFESLRRG | failed |
| MSLRSHFATQKDQWQTYTKEKKIKIGFDATFVPMGYEEKDGSYIGFDIDLANAVFKLYGIDVEWQAIDWDMKETELKNGTIDLIWNGYSVTDERKQSADFTEPYMVNEQVLVTKKSSGIDSVAGMAGKTLGAQAGSSGYDAFNASPKILKDVVANQKVVQYSTFTQALIDLNSGRIDGLLIDRVYANYYLEKSGVLDQYNVMPAGYEGESFAVGARKVDKTLIKKINQGFETLYKNGEFQKISNKWFGEDVATDQVKGKREGHHHHHH | not failed |
| MASYSEDQCSWRGSGLSQAVKNVEQVWLRCAEGSVEWLYPAGALRLTLSPRLPWSAMGPGESSRSPVSVCVKPDPHWGGAQLYLERDGVLELLVGDETSTTPGPAHVRCFSALPGERPALFLQATPHRDISRRIAAFRYELRGDWTAQPAVNTDPVSSEGACRPCNNTEILMAVCTSDFVVRGNIRSVGTDSNLNAAVIKVSATRVYRQKFALFPESGRLTRSGEIRTPLQCGVRPGAGSFLFTGRVHFGEAWLGCAPRYKDFLKAYEQAKQSLMIPCTLVND | failed |
| MVRVVRHSRGTCNRGLYEVRELARNRTLQQWGVEDSAELYGIRNWGAGYFDVAQNGDVVVYPFGHNRGPAVSIPEIIGGMRERGYDMPVLLRIENILDSQITSLHTSFRNAIGSLGYKGEYRGIFPIKVNQQQQVVEKIAQFGSHYHHGLEVGSKAELIAAVSQLRDREACLVCNGYKDEEFIDLGLHAVRLGFMCIFVLEMPGELDLILERGEALGVKPIIGVRAKLSVKAGGHWTDSGGERSTFGLTTSQIVDVVDRLKEKGMLDCFKLLHYHLGSQVPNIRDIRAAVMEACRIYAGLVQEGAAMGFLDLGGGLAVDYDGSHTNFVSSRNYTLDEYCADIVEAVMTTLDEQNIPHPHIVTESGRATVAYYSMLLFNILDVSRVEIGNLPDALPEDTPEPVRNMREVLAGMTLRNLQECYNDALYYRDAVRQLFLTGQVTLRQRTLSERLFWAIMKRIAQEKQKLKHVPKDLAEIDVALADIYYGNFSVFQSLPDSWAIDQLFPVMPVHRLQELPSRQGILSDITCDSDGRIDHFIDPQGMKGTLDLHPLRDGEEYYLGVFLVGAYQETLGDLHNLLGDTNVVSVRVHEDGTYEFVREIRGDSVADILSYVEYDPRRIYEDIRELAERAVREGRITASDRFRVMQAYEDGLRGYTYFERLEHHHHHH | failed |
| PDGPTQLRALNLTEGFAVLHWKPPQNPVDTYDIQVTAPGAPPLQAETPGSAVDYPLHDLVLHTNYTATVRGLRGPNLTSPASITFTTGLEAPRDLEAKEVTP | not failed |
| MTSFQSTLDDDEDGIAEELAASQREISVAEFFEKNKHMLGFDSGARGLVTAVKEAVDNALDATEEAGILPDIYVEISEGRDYYTLIVEDNGPGITNAQIPKIFGKLLYGSRFHAREQSRGQQGIGISAAVLYSQLTSGKPVRIESRTQDSETANVYELIIDTDTNEPEISAETEVSAAKSDLRGTHGTRIEMALDANMRARGQLHDYIKHTAVVNPHARIELQEPGGELKSERAEEASLPAETDEILPHPHGVELGTLIKMLAETDSHSVSGFLQSEFTRVGSKTATGIIDAFRDEHFGREMRWRPPADADLEATVADAVANKDATHTAVFARTVADAVRDADSIAPAELGALVADAAADAQDDTGTSFGETVQANVVAAVRDALTSDRVADVLGPVDEATTVQKDDATVRGLAERIAAKFESGGDTDRVTRDTLDEYVFRAAENTAEYADATIGETARENVADALWARMATVPDDPPNTSALADDRDAASDLLAAMASVNVMAPPTSCLSPIEADQLEAGLRTEFDADFYAAATRDADVHGGDPFIVEAGIAYGGDIDSEGGVQLMRFANRVPLVYQRGACATTDVLGDIGWRNYNLSQPGGSGLPQGPAVIMVHVASTNVPFTSESKDAIANVPEIEAEIELAVREAARELKSFLQKRQSMRKRQQKQDVIMDILPTMAEKVGELTGRGGVDVSDSLARIMNNVLVERARSDDGQTVTLRVENHGTGSVDVDVTDIVSAEPDGVGDDASVVAMDDEYFVKWTPAVAGDDAAELTYSVDADADCELSVSGVADARLTVSEADT | failed |
| MGQFSLDSISSEISERKSFIGRINDEKLSSFDDVVKQRETKSWRAWRRSKRRRFTRKRHGLLASATAEGSESTVHARLNEEDLTAEIVFEECHVSGGELNDVVRLENEMLDRFYGAGFWRSPSQKDTSSGSL | failed |
| MEEKKDFYDTDELRDFMALVEKTNDIKKIALFRILAFTGIRKGELLALEWKDYRKSTLDINKAISHSPVGYEILPPKANSNRLLSLDEKTCKILDELHQTYPESTRIFESENGGMLSPSKPRKWLLEITKEKEIEPIRIHAFRHTHASLLFESGMSLKQVQYRLGHADLKTTMNIYTHITKLEHHHHHH | not failed |
| MDFESNGAMMEYCKSTGRTYCAFSIQQSSKLLGTVVLELFTDIAPATCANFIKYIKDGYQGTPLHRIVPNGWVQGGDIVDGSGKGDPGFVLPDETYSVKHDAPGVLGMATGGQPHTANTQFYISLSPLPFLDGKRVAFGRVLNKQSLENLLALQTLPTFQNERPVPDVVIASCHVIYNPNS | failed |
